From patent US20140127127

Test system: L-pyroglutamyl-L-prolyl-L-arginine-p-nitroaniline hydrochloride

Sequence of recombinant human hepsin extracellular region (Ser46 to Leu417), produced in P. pastoris (chain, as listed by the source): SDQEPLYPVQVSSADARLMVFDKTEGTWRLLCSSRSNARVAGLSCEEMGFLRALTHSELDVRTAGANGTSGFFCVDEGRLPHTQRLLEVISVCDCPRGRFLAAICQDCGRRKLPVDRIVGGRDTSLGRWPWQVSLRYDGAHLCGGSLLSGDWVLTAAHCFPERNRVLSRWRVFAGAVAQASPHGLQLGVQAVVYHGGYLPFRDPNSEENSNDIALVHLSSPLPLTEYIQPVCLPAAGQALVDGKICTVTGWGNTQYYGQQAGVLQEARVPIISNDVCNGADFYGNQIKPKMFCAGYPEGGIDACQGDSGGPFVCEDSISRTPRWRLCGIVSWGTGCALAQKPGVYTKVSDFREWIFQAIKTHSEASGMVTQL

Q: “recombinant human hepsin extracellular region (Ser46 to Leu417), produced in P. pastoris” was tested. Which Km did it give?
A: The Km was 0.4 nM hepsin, Km=170 µM.

Q: What about the “enzymatic cleavage of chromogenic substrate” value of the same substance?
A: The value was “The purified hepsin was enzymatically active (FIG. 1B), cleaving the chromogenic serine protease substrate pyroGlu-Pro-Arg-pNA”.
